# Results: the RNAGym collection of RNA variant scans (doi:10.1073/pnas.2313332121)
# This sample holds only a part of the variants without activity.
# B1: TPR 5TU (parent)
# chain: GGAUCUUCUCGAUCUAACAAAAAAGACAAAUCUGCCACAAAGCUUGAGAGCAUCUUCGGAUGCAGAGGCGGCAGCCUUCGGUGGCGCGAUAGCGCCAACGUUCUCAACUAUGACACGCAAAACGCGUGCUCCGUUGAAUGGAGUUUAUCAUG
# Variants of: B1
# Assay: polymerase ribozyme fitness, log enrichment relative to wild type (log ratio); higher = more active; in vitro selection for triplet polymerase activity
# How it was run: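 For each subunit of a heterodimeric triplet polymerase ribozyme, a mutant library was built by PCR and transcribed, then taken through a single in vitro selection round in triplicate. Selection involved annealing to a biotinylated primer, the partner subunit and triplets, incubation frozen at −7 °C, gel excision of extended constructs, capture on streptavidin beads and RT-PCR. Genotypes were retained after Illumina sequencing of inputs and outputs only with ≥10 input reads and ≥1 read in each output. Fitness is defined as the logarithm of a genotype's enrichment relative to wild-type enrichment, using inverse-variance-weighted averages across replicates, with the logarithm taken to base 2.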
row,Variant,polymerase ribozyme fitness (log ratio)
1,U4C U7G C87A G100A U101A,≤ -4.2
2,G86A G88U G117U,≤ -4.2
3,U55G C87U G92A U101G G143U,-3.33
4,U6C C8U A17U A39G G83A U101A,≤ -4.2
5,C5G C14G A49G,-3.17
6,A22C A39G U144C,-4.03
7,C38A G58A C96G C129G G143A,-2.67
8,C54A U56G C95A A120G,-1.33
9,C38G A49U U55A C87A G126A G143C,≤ -4.2
10,A39G C85U U101C,-2.58
11,C18U U56A U90G C99U A120C C132U U134C,≤ -4.2
12,G34U G50U A91C,-4.01
13,U53G A60U C69U C131G,≤ -4.2
14,G67U G81A C93G C105U,≤ -4.2
15,G50U U61G C108U U135A,≤ -4.2
16,A37C G70C C87A C125U,≤ -4.2
17,A20U U33C G71C G92U C96G A119U C125A,≤ -4.2
18,U15G C79G,-3.38
19,A73G G92A C99G G141U,≤ -4.2
20,C96A A97G,-0.635
21,A39C C87U G94U U101C A147U,≤ -4.2
22,C32A C36G A47G C72G A89G A91G,≤ -4.2
23,A20U G65C C85U A106U,≤ -4.2
24,G84A G133C,-1.78

row,Variant,polymerase ribozyme fitness (log ratio)
1,A17G U145C,0.174
2,G58U G59U C96G C123A C149U,-3.08
3,A12G U44A G46A A66C G86A C93A A97U A138G A142G,≤ -4.2
4,A24U C79U U102G C118U A119G G140A,≤ -4.2
5,A64C G83C G141A,≤ -4.2
6,A3G C8G A23C C54A G80C G81A A89U C93G,≤ -4.2
7,C57A C72G U77A C87A U127A G136A,≤ -4.2
8,U4A C8G U53G G71U A73G C79G C85G C87A G88U G92U A115G,≤ -4.2
9,C10A A37U C79A C85U C87A,≤ -4.2
10,U104C A106G,-0.701
11,C99U G126U,-0.0913
12,U33G C38A C93U A113U G136A A138U,≤ -4.2
13,U44A G50C,≤ -4.2
14,A30C U53A U78G G84U A137G,≤ -4.2
15,C51A C93U,-2.22
16,A19C U53A,-1.57
17,C18G G84C G126U,-2.27
18,A49U A60U G81U A106G C118A U134C,-3.51
19,C10U U78A G86A A107G G124A G140A G141C,≤ -4.2
20,A98U C105U,0.54
21,A17G A40C G48C,-1.5
22,C75G G84A A107U A121U U151C,≤ -4.2
23,U45A U109C,-3.44
24,U15G C57G C93A C99G,-4.06

row,Variant,polymerase ribozyme fitness (log ratio)
1,C72U A98U,0.351
2,C35U U56A G143C,-2.48
3,A21G A41C U56G G65A G141U,-3.42
4,A107U U135C,-4.04
5,A26U G86U,-3.84
6,G42A G88A G124A C125U C129A,≤ -4.2
7,C8U A52U C54U G83A C118A U127G,≤ -4.2
8,A37U C54A C96G,-3.53
9,A29U C95U,-3.54
10,G11A G86A,-2.24
11,G94A G117C A137G,-3.09
12,A41U G65U G141C,≤ -4.2
13,A20G A41U C51A U56A C76U G86U G88U A91U C123A U144A C149A,≤ -4.2
14,A24C U56G G59C A91U U144C G152U,≤ -4.2
15,G46U G62A C76A C87U G88A C118U U134A,≤ -4.2
16,C27A G58A G84A,≤ -4.2
17,C35U U44G C85U C116G C123A,-3.89
18,C54U G59C G83A G117U,-0.252
19,A24C A37C U53A A66U C95A C114G U135C U144A,≤ -4.2
20,C14U A16U C27A A30G G42U C51U C93A,≤ -4.2
21,A12C G25U U55A U56C G83C,≤ -4.2
22,C51U G124A G133C G140A A150G,≤ -4.2
23,C75U A142C,-1.32
24,A3U G143U,-2.76

row,Variant,polymerase ribozyme fitness (log ratio)
1,C57U C85U C87U U144G,-0.0249
2,C51A G94C,-1.47
3,C93G A122U,-2.98
4,A26C A66C G81C G83C,-4.1
5,A3C A47G A52G C87U C96U C99U G124A,-4.19
6,C69G C87A,≤ -4.2
7,U55A G92A,-2.69
8,C38U A73U C87U C96A A122G U145A,-2.54
9,G71C G80C C95G U104G C116U,≤ -4.2
10,C57G G124U U148G,≤ -4.2
11,C18U A30C C32U A39U A49C U53G C93G C96U U127G U139G G140U A147C U151A,≤ -4.2
12,A12U A20G A21C U31A C35G G86U A91G A119U G128C,-3.91
13,U55A C95A G143A U144C,-3.04
14,G48U G59U,0.371
15,A17C C38U A41C A60C,-1.39
16,U44A U144G U151G,≤ -4.2
17,U9G A41U U53A C96A U102A A150U,≤ -4.2
18,G84U C99U G141C,-2.46
19,A107G G140U U151A,≤ -4.2
20,A24G C108U U148G,≤ -4.2
21,C8G A41U U55G U56A G65A G70C U78A G81A C93A A122U,≤ -4.2
22,C14G U82A U101G,-2.29
23,A47U U61A,-1.41
24,U56G G92U,-2.1

row,Variant,polymerase ribozyme fitness (log ratio)
1,C96G A120G,-2
2,C57U U102G,-1.87
3,U31C C51A C69U G81A A91U G124A U144G,≤ -4.2
4,G68C A89C C96A A113G G124C U134C,≤ -4.2
5,C10G U61C G86C C105G A119C,≤ -4.2
6,C57U G86A C99G,-3.33
7,A3U G58C G59C C96U C131A,-3.63
8,G94U A147G,-1.51
9,A20C A97G,-0.83
10,C18G G50A C96G A121C,-2.18
11,G50A A64G,-3.77
12,C10A C54U G67C C85A A107U,≤ -4.2
13,A30C G46U G94U G143A,≤ -4.2
14,C10U C76U A91U C95A A113U A120U,≤ -4.2
15,G84A A121C U127G,-2.56
16,C54U C85G C93U A97C A137U U139G,≤ -4.2
17,C118U A142G U148C,-2.86
18,G100C,-3.72
19,A3U U15C G81U A97U G128U,-3.58
20,C76U A122U,0.0697
21,U44G A49C C93U C125U A150U,≤ -4.2
22,A12G A89G,-1.16
23,U33C C51U G59C C63A A120C C125G U134G,≤ -4.2
24,C5U G46A A52G C85U A107U C118A A137U,≤ -4.2

row,Variant,polymerase ribozyme fitness (log ratio)
1,G11U U13G G62U C69U G81A C87U,≤ -4.2
2,A30U U45A G94U C131G,≤ -4.2
3,C5U C38G C57U G84U A106C,-3
4,U45G G50A C87A C103U G124A,≤ -4.2
5,U77G G92U,-3.92
6,C96U A97G,-0.535
7,G74A C85A U90C G141A U148C,≤ -4.2
8,A16G G80A,-0.775
9,A21U G84A A89G,-1.44
10,C87U G141C,-1.72
11,U102A,-0.854
12,C10A A23U G83U,≤ -4.2
13,C10U A39G U102C,≤ -4.2
14,A40G A97G,-1.8
15,U53A A73G G86A G92U C95U G143U,≤ -4.2
16,C36A C63U,-4.08
17,U53A C93G A98G,≤ -4.2
18,U9G C10U U77G G83A A110G,≤ -4.2
19,A20G A52C,-1.28
20,A26U C93U G117U A137C,≤ -4.2
21,A39C C76G A137C,≤ -4.2
22,A17C A60U G81U G83U G86U C93A,-0.433
23,C54U C76U C123A U139G U146C A150C,≤ -4.2
24,C85U G94U A97U,-0.116

row,Variant,polymerase ribozyme fitness (log ratio)
1,A12U A17C A22C A142C,-2.44
2,A12G U53A U56A U82G A91U G117C A142G,-4.16
3,C93U A98G G124C,-1.76
4,A73C G92A U101G,≤ -4.2
5,A47G U82G C95G,-3.89
6,U61A A89C A107U G117U U144G U151A,≤ -4.2
7,A17U A19U A37U U53A G58A C95A A121G A122C,-3.75
8,U53G A73C G83U G117U,≤ -4.2
9,C54A U56A C85G U101C U134A U148C,≤ -4.2
10,U31A U134A,-1.82
11,G46A U55A C63U U111C C125A,≤ -4.2
12,A64C,≤ -4.2
13,A12C C38U G50C U53A U55G G71U G92U U148C,≤ -4.2
14,G50A C118U A122G A137G A147U,-2.53
15,U61A G65A G67C G84U C96G G141U,≤ -4.2
16,C8U C87A,≤ -4.2
17,A19U G94C U145G,-0.324
18,A26U A28U G81C U90A,≤ -4.2
19,A60G G143U,-1.77
20,C5G C32U G84U,-3.82
21,G94U,1.12
22,C14U G25C A26C G42A A60U G84A C108U G152A,≤ -4.2
23,A91U G124U C131G,≤ -4.2
